Assay results reported in paper PMC7414021, “Dodecin as carrier protein for immunizations and bioengineering applications” (Scientific Reports, 2020).

Key:
Experiment in all cases: SEC
[1] = biological target: SpyT-PAS2-mtDod (Mycobacterium tuberculosis)
[2] = biological target: mtDod-msfGFP-H8 (Mycobacterium tuberculosis | not stated)
[3] = biological target: mtDod-GSG-Lys (Mycobacterium tuberculosis)
[4] = biological target: mtDod-PAS-Met (Mycobacterium tuberculosis)
[5] = biological target: SpyT-mtDod (Mycobacterium tuberculosis)
[6] = biological target: SpyT-mtDod-SnpT (Mycobacterium tuberculosis)
[7] = biological target: mtDod-PAS2-SpyT (Mycobacterium tuberculosis)
[8] = biological target: mtDod-SpyT (Mycobacterium tuberculosis)

SpyT-PAS2-mtDod
stoichiometry N [1]: 12

mtDod-msfGFP-H8
stoichiometry N [2]: 12

mtDod-GSG-Lys
stoichiometry N [3]: 12

mtDod-PAS-Met
stoichiometry N [4]: 12

SpyT-mtDod
stoichiometry N [5]: 12

SpyT-mtDod-SnpT
stoichiometry N [6]: 12

mtDod-PAS2-SpyT
stoichiometry N [7]: 12

mtDod-SpyT
stoichiometry N [8]: 12
